# Measurements published in patent publication US9371519B2, “Complex type sugar chain hydrolase” (National Institute of Advanced Industrial Science and …, priority 2011, dated 2016).
# B1: Endo-Cp: endo-β-N-acetylglucosaminidase from Candida parapolymorpha DL-1 ATCC26012, amino acid sequence SEQ ID NO. 5, 745 amino acids (protein, listed as Candida parapolymorpha)
# chain: MPRNTAKHSSLPQTNLPLSSLESSFFDSLDELANWERRIHEKSFELDELNKPTEKLAHYTRARQQSTSEDVKLLVCHDLKGGYQVNEDEDPLGYFPHPDGQHYFLQYPQLVDKFVYFSHHRVSIPPVSWINVCHRNAIKCLGTVIFEGNTYRDFEEADKLLTKQDGEYVFVRCLVALVEYFQFDGYLFNIETRFSNTRIASLLEPFLEQLRAELHVRNPSTELIWYDSYIYPENRVLYKNGVTEANYNFFSCCDSFFTNYWWNVKHLQDNIKNVGVLGSRLKVYAGYDVWGRGTMIGKGGYDSALACQMIKKYRSNVALFAPAWTYEYLARKDFTQNDTRFWIGLFDGESSMATTFKPYSSPLYKINDSNFVFYTNFGSGEGCAFYECGEKVYRDNWVNGSLQMEIPYAIHTRNKNGIQWTLSKEDSFHGGSCVEIKYNEVVDDKGYQVFNNQTINSFSLFSFVQDCSFPTVNVKLTYKLNHKTKSFFKLKIGYYIERRYRTVQKVRSGCLVVPLLSTNDQWFTIEEPFHVSLQNSHEFIVLDSATIFYEETEDPFMRAHVVEDQSTSSVIDNEEYEKLMNSEIYFDDEDEDWILVPSDISMESTDNGGRENHTWKVISNQIRKKHPKSHPSTSPVLKLGELAIINANDYPSDSFFKLMPVNSIDVRRWEGKILLIWKTNQDSVLYHLIFVDDVFQGISLVSKFVFEDQAVDEKSFKTKSGGSTKVRIDTVNRLGILVKGTDM
# B2: Endo-Pa: endo-β-N-acetylglucosaminidase from Pichia anomala ATCC36904, amino acid sequence SEQ ID NO. 9, 656 amino acids (protein, listed as Pichia anomala)
# chain: MQHDHAAIKFEEDSISSQRFSSLDEVEKWYNTKNRSPLDDLRIPRESLSHYNRFRDNNDEIKVLVCHDFKGNYQEGEDENPLGYFPHSSGQHYFIQFPSLVDLFIFFSHYKIAVPPVSWINSLHRQGIPVLGTLIFEGTDVSESDKLLEKNENGDFKYLEILCELVRHYGFDGWLVNMESHFSSVAKAQDLLLFDEALRSTLHLKVPGSKLIWYDSLITQKNRVFYQNAVNEWNYDHFSTSDLFFTNYWWNEEDLKRNILNIGLQGVKQKLFVGVDIWGRGSRIGNGGFESGLAINYLKRYSTNVALFAPAWTYENFEEDQFLIKDRKFWIGDQTSDETGGSVATYVSHYTTPVYVKDQNVKFYTNFSVGEGTKYRVFAHTVFKNNWVNGNLQLPTPIIDNEKRIDIYYKESFNGGSSLKVTQRNSILNDGKSNILQLFSFKNDIHSNNLNVSVSFKYLSEIPLNSTFQLEIKFYIERRYRSVTRVRDGTFKLPLAFSNKNWKYIETSFALPRLQIREHFVLEGLQIRWVDNVDELSSSIGTSGDFTESWIIVPQNSDPNAVYELLIGDLLVEGIKTANGNIDAVTKLSRKITLDSRSILATWKDDTEVLYWIIYVNAKFLGIAHKSLWRVQRGDKLRVDVFTRSGKLVKGEDIFI
# B3: Endo-Zr: endo-β-N-acetylglucosaminidase from Zygosaccharomyces rouxii ATCC2623, amino acid sequence SEQ ID NO. 13, 639 amino acids (protein, listed as Zygosaccharomyces rouxii)
# chain: MKRINQVPGKPEITSLYFDDLNSLQRWFDKGFMDSRDLSNVPKERYSNYVKFEKDSIITIPNLSARKTEIIVCHDFKGGYQSGHDLYPNGQYGTESCKPYSLRYPEIVDKFVYFSHHCVTIPPSPWTNYLHRHSIPVLGTLILEHYPHNGELFKKNAKGEFLYVKYLVELCRKFHFEGWLINFETVFGNNSKQVIPFLRELTARVECEIYGGSVIWYDAFTTFSNKPSHQNEVNLFNYDAYENSSQFMTNYMWDSHNVGNSLRNVGALGMHSHVALGVDVWGRNMQVCRGGFESNIAIYYAKRFGTNAVIFAPGWTYENFGEDQFYEKDDIFWGNIKSTLQLDSYSDSQLSSWFVSESKKTRYFTTFFSTGSGNFFNLNGRRISNDNWVQLGLSTPFPVNSHSYLSFKDSFVGGSCLALPLSPMENGKLHLFRFEQFIKDQQKTSDSEIRVKLSYKSLGALPPVKLVIKCFVIRRGKRSKTILKVDDVSLVLPLSHSACQTAQGSTKWAVVEQIVPLPSLESRFLEEYYVEDAHLEWTMDNNHDEWLMVPERTEDLDCKLLIGSLCLEIGPHEDNNKRQIVRNGPQLSWQDNESSFMWLKLQDGKLDSVLFTPTTKVNGKQPTILECGRNGTLKFVVKK
# B4: Endo-Om: endo-β-N-acetylglucosaminidase from methylotrophic yeast Ogataea minuta IFO10746, amino acid sequence SEQ ID NO. 1, 772 amino acids (protein, listed as Ogataea minuta)
# chain: MAQSQLLGGAVRPVFFDKLEELRRWHTQSANLSRESELDSLNVATEPFSSYERAQTGSGSRSSEPVPGDKEDPPIKLMVCHDFKGGYQDYEDAQPLGYFPHPTGSRYFLQYPQLIDQFVYFSHHRVTVPPVNWINFCHRNGIKCFGTVIFEGNASKDFEELDRLVSRDEKGDFVFVDALIKLAAHYGFDGYLLNIETTFSNTKIAADLEPFAEQLKSGLHCLDSKNELIWYDSYVFPANKVSYTNGVTESNYNFFSLSDAFFSNYWWNIKNLQENIKNVGVLGVQKKIYVGYDVWGRGTLVGKGGFDSSLACKMIAKFKSNVALFAPAWTYESLGPKDFNQNDARFWIGLFENESSISSTVPPHSSAVYKINESSFIFYTNFSSGEGNRFFSKGSEVYRKNWVNGSLQFDLPIDLHRKDKNGLQWALDKSDAFHGGACLEIKYSEIKDENGYQIFNNQMVSDFTLFNFTKECHFPTVNVKVTYKLNHKTKSTFKIKIKYIIERRFRSVQTVRTGYLTIPLLSTSGKWFTVEESFQINLQTSHEYIVLESAHVTYDEDRSADSFFRSYIVEDSAITSVIDNEEYEKLINSEIYNDDEDEDWILVPSDVSISSSESQSNDSKTQYLGRKLFGNKSTPKTRTLEGTAPLLRIGEFAIISANNYPSSNFLAVTSVKSIESSRLEGDSLVLLNWQVGEGHQKGVCYYIIYVNGAVVGLSVAPKFIYQDTELASENSASARSNYKKSGLGSSSDRKSKVRVDSVDKLGNVFTGSEVWV
# Test: Study of optimal reaction conditions (pH and temperature)
# Format: biochemical
# Settings: 10 μM NGA2-Asn-Fmoc; buffers pH 3.5-9.0
# Experimental: Study of the optimal reaction pH for Endo-Om was carried out as follows. A reaction solution containing any of various buffers having a final concentration of 100 mM, 0.5 M of NaCl, 10 μM of NGA2-Asn-Fmoc, and an Endo-Om purified enzyme solution (total volume: 10 μl) was incubated at 50° C. for 1 hour, and heated at 95° C. for 5 minutes, thereby stopping the enzyme reaction. The buffers used herein were a sodium citrate buffer (pH 3.5-5.5), a sodium acetate buffer (pH 4.5-6.0), a sodium phosphate buffer (pH 6.0-7.5), a MOPS-NaOH buffer (pH 6.5-8.0), and a Tris-HCl buffer (pH 8.0-9.0). The reaction solution was subjected to HPLC by the method described in Example 4, and the enzymatic activity was calculated. The optimal reaction temperature was studied by changing the reaction temperature in the activity measurement method described in Example 4 in the range of 10° C. to 60° C.
# (§1) Study of the optimal reaction pH for Endo-Cp was carried out as follows. A reaction solution containing any of various buffers having a final concentration of 100 mM, 0.5 M of NaCl, 10 μM of NGA2-Asn-Fmoc, and an Endo-Cp partially purified enzyme solution (total volume: 10 μl) was incubated at 30° C. for 3 hours, and heated at 95° C. for 5 minutes, thereby stopping the enzyme reaction. The buffers used herein were a sodium citrate buffer (pH 3.5-5.5), a sodium acetate buffer (pH 4.5-6.0), a sodium phosphate buffer (pH 6.0-7.5), a MOPS-NaOH buffer (pH 6.5-8.0), and a Tris-HCl buffer (pH 8.0-9.0). The reaction solution was subjected to HPLC by the method described in Example 8, and the enzymatic activity was calculated. The optimal reaction temperature was studied by changing the reaction temperature in the activity measurement method described in Example 8 in the range of 10° C. to 70° C.
# as §1, with “Endo-Pa” for “Endo-Cp”, “12,” for “8,”, “The optimal reaction temperature was studied by changing the reaction temperature in the activity measurement method described in Example 8 in the range of 10° C. to 70° C.” left out
# Study of the optimal reaction pH for Endo-Zr was carried out as follows. […] The reaction solution was subjected to HPLC by the method described in Example 16, and the enzymatic activity was calculated. […]
row,Molecule,Optimal pH (optimal reaction pH)
1,B1,about 5.5
2,B2,5.0-5.5
3,B3,4.5-5.0
4,B4,about 5.5
